As usually defined, the EC50 is the concentration that produces a half-maximal response.

Experiment [1] deals with gp120, a protein in the HIV envelope (HIV). The experiment in a line: competition ELISA, Q-GRFT binding to gp120 in the presence of α-mannan at 0.005 (printed g/mL; the legend of FIG. 3 prints µg/mL). (In general: An ELISA detects its analyte on a solid surface through an enzyme-linked reagent.)
Experiment [2] shares this target. The experiment in a line: competition ELISA, Q-GRFT binding to gp120, PBS control (no α-mannan).

“Q-Griffithsin (Q-GRFT), recombinant oxidation-resistant variant of griffithsin (M78Q) (from UniProt P84801 1-121)”: the results for the EC50 in experiment [1] and in experiment [2] were 79.3 µg/mL and 72.5 µg/mL, respectively.

The values above are taken from patent US20250018005A1.
